Assay results reported in article PMC7949131.

Experiments:
[1] = molecular target: rat HA-NK1R (neurokinin 1 receptor) (rat) (UniProt P14600)
[2] = molecular target: rat HA-NK1R (neurokinin 1 receptor) (rat) (UniProt P14600); remark: listed apart in the source
[3] = molecular target: rat HA-NK1R (neurokinin 1 receptor) (rat) (UniProt P14600); test: high-content imaging fluorescent competition binding on cells; HEK-NK1R cells in 96-well plates, increasing concentrations of Span or Span-Chol with 0.5 nM SP-TAMRA, 30 min in total, 37°C; granularity analysis, total cell binding (cell surface and intracellular); competitive binding, one site, fit logIC50
[4] = molecular target: rat HA-NK1R (neurokinin 1 receptor) (rat) (UniProt P14600); test: high-content imaging fluorescent competition binding on cells; HEK-NK1R cells in 96-well plates, preincubated with Span or Span-Chol for 3.5 h, then 0.5 nM SP-TAMRA for a further 30 min (4 h in total), 37°C; granularity analysis, total cell binding (cell surface and intracellular); competitive binding, one site, fit logIC50
[5] = molecular target: rat HA-NK1R (neurokinin 1 receptor) (rat) (UniProt P14600); remark: listed apart in the source

Chain of UniProt P14600 (P14600 whole entry): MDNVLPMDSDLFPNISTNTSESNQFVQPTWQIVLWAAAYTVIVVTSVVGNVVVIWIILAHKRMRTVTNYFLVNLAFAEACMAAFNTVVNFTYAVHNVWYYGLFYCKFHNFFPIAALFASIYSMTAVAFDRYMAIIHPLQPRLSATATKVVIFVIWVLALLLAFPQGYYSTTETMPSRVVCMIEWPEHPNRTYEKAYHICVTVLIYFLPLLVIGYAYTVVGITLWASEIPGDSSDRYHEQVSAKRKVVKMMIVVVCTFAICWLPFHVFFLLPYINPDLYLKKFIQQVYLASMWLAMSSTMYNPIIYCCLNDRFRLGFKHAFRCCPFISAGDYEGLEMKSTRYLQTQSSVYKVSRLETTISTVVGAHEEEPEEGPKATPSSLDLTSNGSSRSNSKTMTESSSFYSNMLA

inhibition of Ca^2+ transients to 1 nM SP in HEK-NK1R cells, 30 min preincubation with antagonist (blocks SP with NK1R); pIC50 [1] | inhibition of Ca^2+ transients to 1 nM SP in HEK-NK1R cells, continuous 4 h incubation with antagonist (blocks SP with NK1R); pIC50 [2] | pIC50 [3] | pIC50 [4] | inhibition of Ca^2+ transients to 1 nM SP in HEK-NK1R cells, pulsed administration (30 min antagonist, wash, 3.5 h; 4 h total) (blocks SP with NK1R); pIC50 [5] | Substance
4.87 | 5.11 | 5.99 | 5.55 | – | Spantide I (peptide)
6.25 | 6.36 | 6.28 | 6.5 | 6.15 | Spantide I conjugated to cholestanol via PEG linker (Span-Chol) (peptide)
